# Data published in the supplement of paper PMC10724198.
# ± gives the standard deviation of the averaged measurements.
# Tested on: Saccharomyces cerevisiae
# Assay: protein stability index of tFT-peptide fusion (C-terminal peptide) (PSI (0-1 scale)); higher = more stable (slower turnover)
# Settings: genetic background: wild type; temperature: 30 C
# 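Also: PSI is a weighted mean of sequencing reads over stability bins, variants kept only with over 10 reads, mCherry proximal and sfGFP distal, peptide attached via GGGS linker.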
row,Sequence,protein stability index
1,MPKVIIGMSVTK,0.687 ± 0.015
2,VFWVFDGFEGFI,0.825 ± 0.022
3,GFGLACGRCMGS,0.623 ± 0.098
4,PLGQGRRRPPDA,0.732 ± 0.1
5,PPFPPPPPPSPS,0.751 ± 0.07
6,ETRIRGVMPRAY,0.659 ± 0.014
7,KKKRKKKQKIRK,0.731 ± 0.08
8,APPPAYCPPPPP,0.713 ± 0.022
9,AALLQAGMPRTR,0.692 ± 0.013
10,LLVLGHVCAANF,0.601 ± 0.0094
11,LICLTIHNEGSK,0.583 ± 0.017
12,KKKKQKNNRKKP,0.574 ± 0.059
13,QCESVRLNFGGR,0.704 ± 0.021
14,GCLLVVGGVWGS,0.625 ± 0.036
15,HSTPDSAAQEPG,0.673 ± 0.065
16,AFRCGGVPGDFA,0.664 ± 0.022
17,LFFSLLCSSFGS,0.708 ± 0.022
18,SVFTLLGSMCLE,0.664 ± 0.011
19,VCVACLRYPTFS,0.6767 ± 0.0031
20,GYTDPYPAAAPS,0.639 ± 0.056
21,PPPPPLLPSPSP,0.696 ± 0.05
22,ARPGAWAPTEVD,0.737 ± 0.0099
23,SRLLLPPRGILP,0.76 ± 0.15
24,GMADVCRVGSRG,0.674 ± 0.033
25,KKKKKKKKRNRK,0.666 ± 0.018
26,RPPRPPTHSPPP,0.68 ± 0.01

row,Sequence,protein stability index
1,CLWLALMSIFLP,0.539 ± 0.03
2,ALRCRPVYHIDG,0.658 ± 0.025
3,VISKIAIKAKER,0.665 ± 0.047
4,VGVRCCPRLRFG,0.695 ± 0.061
5,LALHWVESRFKH,0.71 ± 0.06
6,RKGERRKKKKRR,0.677 ± 0.051
7,KNEGYHNVTMNL,0.707 ± 0.017
8,SGVSRSGREFRN,0.634 ± 0.088
9,SASSESTFLRAR,0.641 ± 0.012
10,ALASPGLLVFTR,0.673 ± 0.026
11,GASPLPSPADHL,0.717 ± 0.14
12,WSSRGAIDSARH,0.762 ± 0.019
13,KALNLAAAILYG,0.638 ± 0.015
14,KKSDTKKKGQNK,0.673 ± 0.048
15,PSFSPLPLPSIV,0.728 ± 0.039
16,CDEVEGVLLVRG,0.707 ± 0.047
17,RGPRGGFHFFRA,0.6657 ± 0.003
18,DRSQKINKKKKK,0.75 ± 0.017
19,FDRWEDCKGTRD,0.71 ± 0.013
20,RTLAGLLVDSHV,0.679 ± 0.041
21,RGYGRGWRGVGA,0.747 ± 0.18
22,KRKKTRNKNGKG,0.627 ± 0.073
23,SHFHSRDARRSP,0.673 ± 0.0068
24,GGGGGGVDWFEI,0.71359 ± 2.1e-05
25,WSTGEKMALHGR,0.787 ± 0.12
26,PPHTALLPPAPA,0.583 ± 0.019

row,Sequence,protein stability index
1,GGMAFSRPSFNG,0.729 ± 0.032
2,IKKKKKKGIILD,0.71 ± 0.05
3,GLFNIDLFRFVR,0.732 ± 0.041
4,PTPLRILFALTP,0.611 ± 0.12
5,PPLPLPTLPCRP,0.644 ± 0.035
6,FWAWEGCTRALM,0.681 ± 0.07
7,ISGRRPWGFGGE,0.642 ± 0.041
8,GNRVGQREEIEK,0.655 ± 0.023
9,GVLRGNRITECF,0.716 ± 0.049
10,RRFKIDKNKIKL,0.683 ± 0.018
11,VLEVLKTGKKIM,0.692 ± 0.032
12,KKDTTRGENYKP,0.767 ± 0.016
13,GKARLATGESAL,0.674 ± 0.031
14,GYVVVGGGGWLG,0.6754 ± 0.0025
15,PPPAPPSPPPPP,0.65 ± 0.054
16,FRYICYSRPVMR,0.684 ± 0.14
17,GCRGGLREAGVW,0.768 ± 0.024
18,VPSAFLYLVGSL,0.591 ± 0.01
19,DTRRHSFCSGTG,0.697 ± 0.029
20,EIAGKGFRLGEW,0.74 ± 0.052
21,CIFTVINNTPYC,0.801 ± 0.12
22,APAPELRRSPTP,0.707 ± 0.01
23,VDREGFTVLGRV,0.657 ± 0.021
24,LGCDDWIDWSRG,0.694 ± 0.054
25,RVRFRVYKGGAL,0.661 ± 0.041
26,GLLGVGDFRTEF,0.638 ± 0.048

row,Sequence,protein stability index
1,FAAGIMWQSGLK,0.657 ± 0.019
2,GSGGGGGYVSGN,0.69 ± 0.021
3,PPPLPALRPPSH,0.7193 ± 0.0013
4,GAGGVWGGGQAG,0.696 ± 0.041
5,PPGPTSSPTKTH,0.729 ± 0.056
6,YIIEGKRKYNRI,0.682 ± 0.029
7,PSPPPHGLPRPA,0.675 ± 0.06
8,SCWVLPFHYGSG,0.714 ± 0.026
9,SGNDIQSLNIVI,0.754 ± 0.081
10,QSRYASDLRNGL,0.699 ± 0.065
11,LVGTYTPRFTPC,0.643 ± 0.1
12,TNARDPPGPTPH,0.586 ± 0.06
13,GGKKRGVRMCGG,0.655 ± 0.013
14,AGSSIPLPASRA,0.705 ± 0.026
15,LISLGTYLINGF,0.6441 ± 0.0051
16,PALPFAPPPLPP,0.685 ± 0.02
17,RSSTYGIMYSYR,0.715 ± 0.035
18,VSPSPIPSMPVI,0.71 ± 0.078
19,RKKIIRDKLNTS,0.709 ± 0.051
20,DQSLHAWSLRCT,0.771 ± 0.011
21,VLLGTVRCCFLG,0.556 ± 0.022
22,GGGGGLRVSCGT,0.679 ± 0.083
23,PPPPPPNAPPSS,0.647 ± 0.03
